# The star is where a group is joined. FITC = O=C1OC2(c3ccc(O)cc3Oc3cc(O)ccc32)c2ccc(NC(=S)*)cc21; βAla = NCCC(=O)O
# Tests used:
# [1] = molecular target: T1, His-EcGlpG C104A+H254A (inactive mutant) (Escherichia coli, UniProt P09391 1-276, C104A | H254A); test: pull-down
# T1 sequence (looked up): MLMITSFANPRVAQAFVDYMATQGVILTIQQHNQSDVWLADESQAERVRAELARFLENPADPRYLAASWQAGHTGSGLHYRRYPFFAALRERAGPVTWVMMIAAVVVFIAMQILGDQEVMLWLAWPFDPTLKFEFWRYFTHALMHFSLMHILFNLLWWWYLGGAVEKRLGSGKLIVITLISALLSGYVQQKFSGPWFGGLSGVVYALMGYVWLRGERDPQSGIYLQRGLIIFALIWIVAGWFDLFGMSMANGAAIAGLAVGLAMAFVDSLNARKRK
# [2] = molecular target: HA-EcGlpG S201A+H254A (inactive mutant) (Escherichia coli, UniProt P09391 1-276, S201A | H254A); test: SEC
binder,measurement,setting,value
{FITC-βAla}-MESTIATAAFGSPWQLIIIALLIILIFGTKKLR-NH2 (SMILES CC[C@H](C)[C@H](NC(=O)[C@H](CC(C)C)NC(=O)[C@@H](NC(=O)[C@@H](NC(=O)[C@H](CC(C)C)NC(=O)[C@H](CC(C)C)NC(=O)[C@H](C)NC(=O)[C@@H](NC(=O)[C@@H](NC(=O)[C@@H](NC(=O)[C@H](CC(C)C)NC(=O)[C@H](CCC(N)=O)NC(=O)[C@H](Cc1c[nH]c2ccccc12)NC(=O)[C@@H]1CCCN1C(=O)[C@H](CO)NC(=O)CNC(=O)[C@H](Cc1ccccc1)NC(=O)[C@H](C)NC(=O)[C@H](C)NC(=O)[C@@H](NC(=O)[C@H](C)NC(=O)[C@@H](NC(=O)[C@@H](NC(=O)[C@H](CO)NC(=O)[C@H](CCC(=O)O)NC(=O)[C@H](CCSC)NC(=O)CCNC(=S)Nc1ccc2c(c1)C(=O)OC21c2ccc(O)cc2Oc2cc(O)ccc21)[C@@H](C)O)[C@@H](C)CC)[C@@H](C)O)[C@@H](C)CC)[C@@H](C)CC)[C@@H](C)CC)[C@@H](C)CC)[C@@H](C)CC)C(=O)N[C@@H](Cc1ccccc1)C(=O)NCC(=O)N[C@H](C(=O)N[C@@H](CCCCN)C(=O)N[C@@H](CCCCN)C(=O)N[C@@H](CC(C)C)C(=O)N[C@@H](CCCNC(=N)N)C(N)=O)[C@@H](C)O) [FITC-TatA (Providencia stuartii TatA residues 1-33 of 97)],Kd,[1],≥ 1000 µM
same,Kd,[2],191 ± 29.4 µM
